Starred links: 1 amine or outer side, 2 acyl side, 3 side chain; linkers in the order of their positions; H or OH if unused. Non-standard residues stand in square brackets, D forms with d. Groups on a side chain read outwards from the residue. No end group written: not given here. *: point of attachment. C20 diacid = O=C(O)CCCCCCCCCCCCCCCCCCC(=O)*; γGlu = O=C(O)[C@H](CCC(=O)[*:2])N[*:1]; αMeL = CC(C)C[C@](C)(N)C(=O)O; αMeK = C[C@](N)(CCCCN)C(=O)O; AEEA = NCCOCCOCC(=O)O; Aib = CC(C)(N)C(=O)O
T1: human glucose-dependent insulinotropic polypeptide receptor (human, UniProt P48546 22-466)
T1 sequence (looked up): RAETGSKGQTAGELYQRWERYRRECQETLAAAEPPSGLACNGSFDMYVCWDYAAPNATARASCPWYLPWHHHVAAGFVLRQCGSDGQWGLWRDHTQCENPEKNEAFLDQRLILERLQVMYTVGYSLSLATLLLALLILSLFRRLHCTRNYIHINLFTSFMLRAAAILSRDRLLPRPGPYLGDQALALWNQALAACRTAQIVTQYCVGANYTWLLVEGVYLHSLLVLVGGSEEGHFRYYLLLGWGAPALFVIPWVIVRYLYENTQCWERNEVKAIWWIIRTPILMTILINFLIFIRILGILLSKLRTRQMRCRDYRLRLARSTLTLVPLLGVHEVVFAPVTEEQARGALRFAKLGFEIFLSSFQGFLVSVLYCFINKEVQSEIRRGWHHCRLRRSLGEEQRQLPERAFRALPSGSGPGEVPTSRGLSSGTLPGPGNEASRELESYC

B1: Compound No. 0155 (peptide)
peptide: H[Aib]QGTFTSDYSI[αMeL]LEK([AEEA-AEEA-γGlu-C20 diacid])KAAQEFVEWLLAGGPSSGAPPPS-NH2
modifications: N-terminus assumed
SMILES: CC[C@H](C)[C@H](NC(=O)[C@H](CO)NC(=O)[C@H](Cc1ccc(O)cc1)NC(=O)[C@H](CC(=O)O)NC(=O)[C@H](CO)NC(=O)[C@@H](NC(=O)[C@H](Cc1ccccc1)NC(=O)[C@@H](NC(=O)CNC(=O)[C@H](CCC(N)=O)NC(=O)C(C)(C)NC(=O)[C@@H](N)Cc1c[nH]cn1)[C@@H](C)O)[C@@H](C)O)C(=O)N[C@@](C)(CC(C)C)C(=O)N[C@@H](CC(C)C)C(=O)N[C@@H](CCC(=O)O)C(=O)N[C@@H](CCCCNC(=O)COCCOCCNC(=O)COCCOCCNC(=O)CC[C@H](NC(=O)CCCCCCCCCCCCCCCCCCC(=O)O)C(=O)O)C(=O)N[C@@H](CCCCN)C(=O)N[C@@H](C)C(=O)N[C@@H](C)C(=O)N[C@@H](CCC(N)=O)C(=O)N[C@@H](CCC(=O)O)C(=O)N[C@@H](Cc1ccccc1)C(=O)N[C@H](C(=O)N[C@@H](CCC(=O)O)C(=O)N[C@@H](Cc1c[nH]c2ccccc12)C(=O)N[C@@H](CC(C)C)C(=O)N[C@@H](CC(C)C)C(=O)N[C@@H](C)C(=O)NCC(=O)NCC(=O)N1CCC[C@H]1C(=O)N[C@@H](CO)C(=O)N[C@@H](CO)C(=O)NCC(=O)N[C@@H](C)C(=O)N1CCC[C@H]1C(=O)N1CCC[C@H]1C(=O)N1CCC[C@H]1C(=O)N[C@@H](CO)C(N)=O)C(C)C
B2: Compound No. 0152 (peptide)
peptide: H[Aib]HGTFTSDYSILLEK([AEEA-AEEA-γGlu-C20 diacid])QAAQEFVEWLLAGGPSSGAPPPS-NH2
modifications: N-terminus assumed
SMILES: CC[C@H](C)[C@H](NC(=O)[C@H](CO)NC(=O)[C@H](Cc1ccc(O)cc1)NC(=O)[C@H](CC(=O)O)NC(=O)[C@H](CO)NC(=O)[C@@H](NC(=O)[C@H](Cc1ccccc1)NC(=O)[C@@H](NC(=O)CNC(=O)[C@H](Cc1c[nH]cn1)NC(=O)C(C)(C)NC(=O)[C@@H](N)Cc1c[nH]cn1)[C@@H](C)O)[C@@H](C)O)C(=O)N[C@@H](CC(C)C)C(=O)N[C@@H](CC(C)C)C(=O)N[C@@H](CCC(=O)O)C(=O)N[C@@H](CCCCNC(=O)COCCOCCNC(=O)COCCOCCNC(=O)CC[C@H](NC(=O)CCCCCCCCCCCCCCCCCCC(=O)O)C(=O)O)C(=O)N[C@@H](CCC(N)=O)C(=O)N[C@@H](C)C(=O)N[C@@H](C)C(=O)N[C@@H](CCC(N)=O)C(=O)N[C@@H](CCC(=O)O)C(=O)N[C@@H](Cc1ccccc1)C(=O)N[C@H](C(=O)N[C@@H](CCC(=O)O)C(=O)N[C@@H](Cc1c[nH]c2ccccc12)C(=O)N[C@@H](CC(C)C)C(=O)N[C@@H](CC(C)C)C(=O)N[C@@H](C)C(=O)NCC(=O)NCC(=O)N1CCC[C@H]1C(=O)N[C@@H](CO)C(=O)N[C@@H](CO)C(=O)NCC(=O)N[C@@H](C)C(=O)N1CCC[C@H]1C(=O)N1CCC[C@H]1C(=O)N1CCC[C@H]1C(=O)N[C@@H](CO)C(N)=O)C(C)C
B3: Compound No. 0153 (peptide)
peptide: H[Aib]HGTFTSDYSILLEK([AEEA-AEEA-γGlu-C20 diacid])QAAQEFVEWLLA[dE]GPSSGAPPPS-NH2
modifications: N-terminus assumed
SMILES: CC[C@H](C)[C@H](NC(=O)[C@H](CO)NC(=O)[C@H](Cc1ccc(O)cc1)NC(=O)[C@H](CC(=O)O)NC(=O)[C@H](CO)NC(=O)[C@@H](NC(=O)[C@H](Cc1ccccc1)NC(=O)[C@@H](NC(=O)CNC(=O)[C@H](Cc1c[nH]cn1)NC(=O)C(C)(C)NC(=O)[C@@H](N)Cc1c[nH]cn1)[C@@H](C)O)[C@@H](C)O)C(=O)N[C@@H](CC(C)C)C(=O)N[C@@H](CC(C)C)C(=O)N[C@@H](CCC(=O)O)C(=O)N[C@@H](CCCCNC(=O)COCCOCCNC(=O)COCCOCCNC(=O)CC[C@H](NC(=O)CCCCCCCCCCCCCCCCCCC(=O)O)C(=O)O)C(=O)N[C@@H](CCC(N)=O)C(=O)N[C@@H](C)C(=O)N[C@@H](C)C(=O)N[C@@H](CCC(N)=O)C(=O)N[C@@H](CCC(=O)O)C(=O)N[C@@H](Cc1ccccc1)C(=O)N[C@H](C(=O)N[C@@H](CCC(=O)O)C(=O)N[C@@H](Cc1c[nH]c2ccccc12)C(=O)N[C@@H](CC(C)C)C(=O)N[C@@H](CC(C)C)C(=O)N[C@@H](C)C(=O)N[C@H](CCC(=O)O)C(=O)NCC(=O)N1CCC[C@H]1C(=O)N[C@@H](CO)C(=O)N[C@@H](CO)C(=O)NCC(=O)N[C@@H](C)C(=O)N1CCC[C@H]1C(=O)N1CCC[C@H]1C(=O)N1CCC[C@H]1C(=O)N[C@@H](CO)C(N)=O)C(C)C
B4: Compound No. 0154 (peptide)
peptide: H[Aib]QGTFTSDYSILLEK([AEEA-AEEA-γGlu-C20 diacid])KAAQEFVEWLLAGGPSSGAPPPS-NH2
modifications: N-terminus assumed
SMILES: CC[C@H](C)[C@H](NC(=O)[C@H](CO)NC(=O)[C@H](Cc1ccc(O)cc1)NC(=O)[C@H](CC(=O)O)NC(=O)[C@H](CO)NC(=O)[C@@H](NC(=O)[C@H](Cc1ccccc1)NC(=O)[C@@H](NC(=O)CNC(=O)[C@H](CCC(N)=O)NC(=O)C(C)(C)NC(=O)[C@@H](N)Cc1c[nH]cn1)[C@@H](C)O)[C@@H](C)O)C(=O)N[C@@H](CC(C)C)C(=O)N[C@@H](CC(C)C)C(=O)N[C@@H](CCC(=O)O)C(=O)N[C@@H](CCCCNC(=O)COCCOCCNC(=O)COCCOCCNC(=O)CC[C@H](NC(=O)CCCCCCCCCCCCCCCCCCC(=O)O)C(=O)O)C(=O)N[C@@H](CCCCN)C(=O)N[C@@H](C)C(=O)N[C@@H](C)C(=O)N[C@@H](CCC(N)=O)C(=O)N[C@@H](CCC(=O)O)C(=O)N[C@@H](Cc1ccccc1)C(=O)N[C@H](C(=O)N[C@@H](CCC(=O)O)C(=O)N[C@@H](Cc1c[nH]c2ccccc12)C(=O)N[C@@H](CC(C)C)C(=O)N[C@@H](CC(C)C)C(=O)N[C@@H](C)C(=O)NCC(=O)NCC(=O)N1CCC[C@H]1C(=O)N[C@@H](CO)C(=O)N[C@@H](CO)C(=O)NCC(=O)N[C@@H](C)C(=O)N1CCC[C@H]1C(=O)N1CCC[C@H]1C(=O)N1CCC[C@H]1C(=O)N[C@@H](CO)C(N)=O)C(C)C
B5: Compound No. 0112 (peptide)
peptide: H[Aib]HGTFTSDYS[αMeK]LLEK([AEEA-AEEA-γGlu-C20 diacid])KAAQEFVEWLLAGGPSSGAPPPS-NH2
modifications: N-terminus assumed
SMILES: CC(C)C[C@H](NC(=O)[C@H](CC(C)C)NC(=O)[C@H](Cc1c[nH]c2ccccc12)NC(=O)[C@H](CCC(=O)O)NC(=O)[C@@H](NC(=O)[C@H](Cc1ccccc1)NC(=O)[C@H](CCC(=O)O)NC(=O)[C@H](CCC(N)=O)NC(=O)[C@H](C)NC(=O)[C@H](C)NC(=O)[C@H](CCCCN)NC(=O)[C@H](CCCCNC(=O)COCCOCCNC(=O)COCCOCCNC(=O)CC[C@H](NC(=O)CCCCCCCCCCCCCCCCCCC(=O)O)C(=O)O)NC(=O)[C@H](CCC(=O)O)NC(=O)[C@H](CC(C)C)NC(=O)[C@H](CC(C)C)NC(=O)[C@](C)(CCCCN)NC(=O)[C@H](CO)NC(=O)[C@H](Cc1ccc(O)cc1)NC(=O)[C@H](CC(=O)O)NC(=O)[C@H](CO)NC(=O)[C@@H](NC(=O)[C@H](Cc1ccccc1)NC(=O)[C@@H](NC(=O)CNC(=O)[C@H](Cc1c[nH]cn1)NC(=O)C(C)(C)NC(=O)[C@@H](N)Cc1c[nH]cn1)[C@@H](C)O)[C@@H](C)O)C(C)C)C(=O)N[C@@H](C)C(=O)NCC(=O)NCC(=O)N1CCC[C@H]1C(=O)N[C@@H](CO)C(=O)N[C@@H](CO)C(=O)NCC(=O)N[C@@H](C)C(=O)N1CCC[C@H]1C(=O)N1CCC[C@H]1C(=O)N1CCC[C@H]1C(=O)N[C@@H](CO)C(N)=O

biological target: T2, human glucagon-like peptide-1 receptor (human, UniProt P43220 24-463); assay: cell-based or functional assay

Binder | Activity against human GLP-1R (EC50 nM) [nM]
B1 | 0.036
B2 | 0.054
B3 | 0.051
B4 | 0.033

biological target: T1, human glucose-dependent insulinotropic …; assay: cell-based or functional assay

Binder | Activity against human GIPR (EC50 nM) [nM]
B1 | 0.014
B2 | 0.009
B3 | 0.01
B4 | 0.031

biological target: T3, human glucagon receptor (human, UniProt P47871 26-477); assay: cell-based or functional assay
T3 sequence (P47871 26-477): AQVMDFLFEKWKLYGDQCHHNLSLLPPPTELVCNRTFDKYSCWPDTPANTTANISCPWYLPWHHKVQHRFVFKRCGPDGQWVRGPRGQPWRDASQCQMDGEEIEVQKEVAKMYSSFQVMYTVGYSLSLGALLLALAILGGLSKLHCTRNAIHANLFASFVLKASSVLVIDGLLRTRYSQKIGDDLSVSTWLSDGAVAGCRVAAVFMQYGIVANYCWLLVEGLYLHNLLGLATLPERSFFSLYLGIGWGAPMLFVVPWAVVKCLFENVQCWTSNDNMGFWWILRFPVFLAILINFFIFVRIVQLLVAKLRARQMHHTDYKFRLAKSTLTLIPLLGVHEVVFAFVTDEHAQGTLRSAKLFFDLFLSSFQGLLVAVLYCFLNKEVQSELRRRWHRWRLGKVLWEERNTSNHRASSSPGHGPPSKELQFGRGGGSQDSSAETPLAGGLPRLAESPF

Binder | Activity against human GCGR (EC50 nM) [nM]
B1 | 3.65
B2 | 0.29
B3 | 0.334
B4 | 1.62

biological target: T2, human glucagon-like peptide-1 receptor; assay: cell-based or functional assay; remark: another data set of the same source

Binder | Activity against human GLP-1R (EC50 nM) [nM]
H[Aib]HGTFTSDYS[αMeK]YLEK([AEEA-AEEA-γGlu-C20 diacid])KAAQEFVEWLIEGGPSSGAPPPS-NH2 [Compound No. 0115] | 0.023
B5 | 0.031

biological target: T1, human glucose-dependent insulinotropic …; assay: cell-based or functional assay; remark: another data set of the same source

Binder | Activity against human GIPR (EC50 nM) [nM]
H[Aib]HGTFTSDYS[αMeK]YLEK([AEEA-AEEA-γGlu-C20 diacid])KAAQEFVEWLIEGGPSSGAPPPS-NH2 [Compound No. 0115] | 0.051
B5 | 0.005

biological target: T3, human glucagon receptor; assay: cell-based or functional assay; remark: another data set of the same source

Binder | Activity against human GCGR (EC50 nM) [nM]
H[Aib]HGTFTSDYS[αMeK]YLEK([AEEA-AEEA-γGlu-C20 diacid])KAAQEFVEWLIEGGPSSGAPPPS-NH2 [Compound No. 0115] | 0.425
B5 | 0.087

Reference: patent EP4745153A1, “GLP-1, GIP AND GCG RECEPTOR […] USE THEREOF” (Jiangsu Hengrui Pharmaceuticals Co., Ltd., priority 2023, dated 2025)
